Data published in patent US20190024066A1.
Where “and” joins values, the source holds several entries; their conditions need not be identical. Equal values may be shown once.

How the values were obtained:
CD20 on Raji cells [1] = target: CD20 on Raji cells (UniProt P11836); assay: flow cytometry, Raji cells; 0.009766 µg/mL
[2] = target: His-tagged FcγRI (R&D Systems) (human) (UniProt P12314); assay: competition ELISA, His-FcγRI, competitor coated anti-idiotype antibody; 10 µg/ml
[3] = target: FcγRIIIaV with a hexahistidine tag (R&D Systems) (human) (UniProt P08637); assay: BLI, His-FcγRIIIaV on anti-penta-His sensor, steady-state model
Chain of UniProt P08637 (P08637 17-208 F176V limits assumed): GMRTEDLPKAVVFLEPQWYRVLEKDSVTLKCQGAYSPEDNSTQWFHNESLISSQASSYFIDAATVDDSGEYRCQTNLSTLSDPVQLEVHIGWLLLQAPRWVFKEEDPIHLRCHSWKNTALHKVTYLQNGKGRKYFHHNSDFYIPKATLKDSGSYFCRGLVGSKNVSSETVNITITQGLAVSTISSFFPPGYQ

[4] = target: His-tagged FcγRIIb (R&D Systems) (human) (UniProt P31994); assay: competition ELISA, His-FcγRIIb, competitor coated HZ 15C1; 3000 µg/ml
Chain of UniProt P31994 (P31994 46-217 limits assumed): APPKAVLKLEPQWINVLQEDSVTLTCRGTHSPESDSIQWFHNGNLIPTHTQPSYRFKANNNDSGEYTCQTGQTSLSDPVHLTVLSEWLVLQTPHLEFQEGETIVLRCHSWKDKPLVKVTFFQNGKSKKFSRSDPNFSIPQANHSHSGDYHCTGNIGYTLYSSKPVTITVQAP

[5] = target: His-tagged FcγRIIb (R&D Systems) (human) (UniProt P31994); assay: competition ELISA, His-FcγRIIb, competitor coated HZ 15C1; 4.12 µg/ml
[6] = target: His-tagged FcγRI (R&D Systems) (human) (UniProt P12314); assay: competition ELISA, His-FcγRI, competitor coated anti-idiotype antibody; 0.016 µg/ml
[7] = target: His-tagged FcγRIIa (FcγRIIaR, R&D Systems) (human) (UniProt P12318); assay: competition ELISA, His-FcγRIIaR, competitor coated HZ 15C1; concentration cell 0.790496
Chain of UniProt P12318 (P12318 36-218 H167R limits assumed): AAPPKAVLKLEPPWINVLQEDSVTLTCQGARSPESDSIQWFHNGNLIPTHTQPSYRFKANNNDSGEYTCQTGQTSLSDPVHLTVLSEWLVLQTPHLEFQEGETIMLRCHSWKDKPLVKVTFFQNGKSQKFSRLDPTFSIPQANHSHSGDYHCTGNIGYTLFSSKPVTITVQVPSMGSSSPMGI

[8] = target: His-tagged FcγRIIa (FcγRIIaR, R&D Systems) (human) (UniProt P12318); assay: competition ELISA, His-FcγRIIaR, competitor coated HZ 15C1; concentration cell -0.16368
[9] = target: His-tagged FcγRI (R&D Systems) (human) (UniProt P12314); assay: competition ELISA, His-FcγRI, competitor coated anti-idiotype antibody; 50 µg/ml
[10] = target: His-tagged FcγRIIa (FcγRIIaR, R&D Systems) (human) (UniProt P12318); assay: competition ELISA, His-FcγRIIaR, competitor coated HZ 15C1; concentration cell 1.744731
CD20 on Raji cells [11] = target: CD20 on Raji cells (UniProt P11836); assay: flow cytometry, Raji cells; 0.00061 µg/mL
CD20 on Raji cells [12] = target: CD20 on Raji cells (UniProt P11836); assay: flow cytometry, Raji cells; 2.5 µg/mL
[13] = target: His-tagged FcγRI (R&D Systems) (human) (UniProt P12314); assay: competition ELISA, His-FcγRI, competitor coated anti-idiotype antibody; 2 µg/ml
CD20 on Raji cells [14] = target: CD20 on Raji cells (UniProt P11836); assay: flow cytometry, Raji cells; […]
[15] = target: His-tagged FcγRIIb (R&D Systems) (human) (UniProt P31994); assay: competition ELISA, His-FcγRIIb, competitor coated HZ 15C1; 12.35 µg/ml
[16] = target: His-tagged FcγRIIa (FcγRIIaR, R&D Systems) (human) (UniProt P12318); assay: competition ELISA, His-FcγRIIaR, competitor coated HZ 15C1; concentration cell 2.22185
[17] = target: His-tagged FcγRIIa (FcγRIIaR, R&D Systems) (human) (UniProt P12318); assay: competition ELISA, His-FcγRIIaR, competitor coated HZ 15C1; concentration cell 1.267617
[18] = target: His-tagged FcγRI (R&D Systems) (human) (UniProt P12314); assay: competition ELISA, His-FcγRI, competitor coated anti-idiotype antibody; 0.08 µg/ml
[19] = target: His-tagged FcγRIIa (FcγRIIaR, R&D Systems) (human) (UniProt P12318); assay: competition ELISA, His-FcγRIIaR, competitor coated HZ 15C1; concentration cell -0.64016
[20] = target: His-tagged FcγRIIb (R&D Systems) (human) (UniProt P31994); assay: competition ELISA, His-FcγRIIb, competitor coated HZ 15C1; 1000 µg/ml
[21] = target: His-tagged FcγRIIb (R&D Systems) (human) (UniProt P31994); assay: competition ELISA, His-FcγRIIb, competitor coated HZ 15C1; 37.04 µg/ml
CD20 on Raji cells [22] = target: CD20 on Raji cells (UniProt P11836); assay: flow cytometry, Raji cells; 0.625 µg/mL
[23] = target: His-tagged FcγRIIa (FcγRIIaR, R&D Systems) (human) (UniProt P12318); assay: competition ELISA, His-FcγRIIaR, competitor coated HZ 15C1; concentration cell 2.69897
[24] = target: His-tagged FcγRIIb (R&D Systems) (human) (UniProt P31994); assay: competition ELISA, His-FcγRIIb, competitor coated HZ 15C1; 111.11 µg/ml
CD20 on Raji cells [25] = target: CD20 on Raji cells (UniProt P11836); assay: flow cytometry, Raji cells; 0.039063 µg/mL
[26] = target: His-tagged FcγRIIb (R&D Systems) (human) (UniProt P31994); assay: competition ELISA, His-FcγRIIb, competitor coated HZ 15C1; 333.33 µg/ml
CD20 on Raji cells [27] = target: CD20 on Raji cells (UniProt P11836); assay: flow cytometry, Raji cells; 10 µg/mL
[28] = target: mouse neonatal Fc receptor (mFcRn) (mouse) (UniProt Q61559); assay: SPR
Chain of UniProt Q61559 (Q61559 22-297 limits assumed): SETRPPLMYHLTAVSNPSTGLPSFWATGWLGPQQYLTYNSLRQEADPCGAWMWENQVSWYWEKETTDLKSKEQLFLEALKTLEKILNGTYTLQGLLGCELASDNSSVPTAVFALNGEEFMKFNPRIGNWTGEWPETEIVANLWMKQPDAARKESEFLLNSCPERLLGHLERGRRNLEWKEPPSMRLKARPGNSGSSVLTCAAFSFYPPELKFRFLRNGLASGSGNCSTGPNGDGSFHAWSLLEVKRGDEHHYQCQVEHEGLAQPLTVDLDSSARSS

[29] = target: His-tagged FcγRIIa (FcγRIIaR, R&D Systems) (human) (UniProt P12318); assay: competition ELISA, His-FcγRIIaR, competitor coated HZ 15C1; concentration cell 0.313445
[30] = target: His-tagged FcγRI (R&D Systems) (human) (UniProt P12314); assay: competition ELISA, His-FcγRI, competitor coated anti-idiotype antibody; 0.4 µg/ml
[31] = target: His-tagged FcγRI (R&D Systems) (human) (UniProt P12314); assay: competition ELISA, His-FcγRI, competitor coated anti-idiotype antibody; 0.0006 µg/ml
[32] = target: His-tagged FcγRI (R&D Systems) (human) (UniProt P12314); assay: competition ELISA, His-FcγRI, competitor coated anti-idiotype antibody; 0.0032 µg/ml
[33] = target: human neonatal Fc receptor (hFcRn), biotinylated (human) (UniProt P55899); assay: SPR, biotinylated hFcRn on streptavidin chip, IgG injected, pH 6.0
Chain of UniProt P55899 (P55899 24-297 limits assumed): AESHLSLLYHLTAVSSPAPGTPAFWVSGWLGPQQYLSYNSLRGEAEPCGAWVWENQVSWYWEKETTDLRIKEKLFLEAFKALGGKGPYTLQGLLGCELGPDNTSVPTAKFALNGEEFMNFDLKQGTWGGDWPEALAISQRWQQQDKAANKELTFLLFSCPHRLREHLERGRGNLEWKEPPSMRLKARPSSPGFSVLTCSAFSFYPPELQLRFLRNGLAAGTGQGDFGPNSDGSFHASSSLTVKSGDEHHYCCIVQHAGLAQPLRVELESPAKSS

CD20 on Raji cells [34] = target: CD20 on Raji cells (UniProt P11836); assay: flow cytometry, Raji cells; 0.15625 µg/mL

Chain of UniProt P12314 (P12314 16-288 limits assumed): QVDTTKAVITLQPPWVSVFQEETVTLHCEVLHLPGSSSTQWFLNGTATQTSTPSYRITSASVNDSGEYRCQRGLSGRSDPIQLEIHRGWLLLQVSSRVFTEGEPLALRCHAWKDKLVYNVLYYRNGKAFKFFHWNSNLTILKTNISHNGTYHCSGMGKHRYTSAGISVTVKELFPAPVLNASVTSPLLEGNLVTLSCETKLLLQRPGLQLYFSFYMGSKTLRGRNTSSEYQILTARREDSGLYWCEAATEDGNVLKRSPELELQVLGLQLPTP
Chain of UniProt P11836 (P11836 whole entry): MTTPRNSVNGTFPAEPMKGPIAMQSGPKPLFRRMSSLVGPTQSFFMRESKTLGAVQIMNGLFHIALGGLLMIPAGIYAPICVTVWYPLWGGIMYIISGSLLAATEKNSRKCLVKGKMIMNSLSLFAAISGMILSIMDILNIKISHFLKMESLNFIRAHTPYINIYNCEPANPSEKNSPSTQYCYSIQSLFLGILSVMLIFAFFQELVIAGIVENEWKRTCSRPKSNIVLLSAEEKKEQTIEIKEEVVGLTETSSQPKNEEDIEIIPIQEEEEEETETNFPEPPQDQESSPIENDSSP

In the case of “293S anti-CD20 (monoclonal anti-CD20 antibody obinutuzumab, GA101, produced in 293S cells)”, the flow cytometry signal (name not given) (CD20 on Raji cells [1]) is reported as 76.4 and 79.7 and 72.2, the absorbance at 450 nm [2] is reported as 0.143 and 0.141 and the Kd [3] is reported as 500 nM. For the same substance, the absorbance at 450 nm [4] was 0.284 and 0.274, the absorbance at 450 nm [5] was 2.27 and 1.92 and the absorbance at 450 nm [6] was 3.05 and 3.04 and 3.16. For the same substance, the absorbance at 450 nm [7] was 2.56 and 2.91 and 2.98, the absorbance at 450 nm [8] was 2.69 and 3.02 and 3.1 and the absorbance at 450 nm [9] was 0.085 and 0.091 and 0.084. For the same substance, the absorbance at 450 nm [10] was 2.11 and 2.46 and 2.36, the flow cytometry signal (name not given) (CD20 on Raji cells [11]) was 14.1 and 12.3 and 11.3 and the flow cytometry signal (name not given) (CD20 on Raji cells [12]) was 2150 and 2180 and 1920. The absorbance at 450 nm [13] was 0.388 and 0.379 and 0.377, the flow cytometry signal (name not given) (CD20 on Raji cells [14]) was 28.6 and 27.5 and 23.2 and the absorbance at 450 nm [15] was 1.99 and 1.87. The absorbance at 450 nm [16] was 1.5 and 1.64 and 1.68, the absorbance at 450 nm [17] was 2.43 and 2.91 and 2.73 and the absorbance at 450 nm [18] was 2.24 and 2.2 and 2.33. The absorbance at 450 nm [19] was 2.6 and 2.88 and 2.98, the absorbance at 450 nm [20] was 0.641 and 0.629 and the absorbance at 450 nm [21] was 1.66 and 1.54. The flow cytometry signal (name not given) (CD20 on Raji cells [22]) was 1500 and 1520 and 1550, the absorbance at 450 nm [23] was 0.684 and 0.732 and 0.671 and the absorbance at 450 nm [24] was 1.52 and 1.49. The flow cytometry signal (name not given) (CD20 on Raji cells [25]) was 241 and 234 and 210, the absorbance at 450 nm [26] was 1.06 and 1.1 and the flow cytometry signal (name not given) (CD20 on Raji cells [27]) was 2640 and 2560 and 2580. For the same substance, the Kd [28] was 0.258 nM, the absorbance at 450 nm [29] was 2.57 and 2.96 and 2.93 and the absorbance at 450 nm [30] was 1.14 and 1.1 (2×). For the same substance, the absorbance at 450 nm [31] was 3.43 and 3.6 (2×), the absorbance at 450 nm [32] was 3.39 and 3.4 and 3.44 and the Kd [33] was 5.6 nM. For the same substance, the flow cytometry signal (name not given) (CD20 on Raji cells [34]) was 673 (2×) and 644.
